One data set deals with caspase-3. Nature of the data set: Caspase activity by flow cytometry. The format is cell-based, human. The following applies: anti-CD3 activated PBT, 50 μg/ml, 24 h. Here is the method: To measure caspase activity, 5×10^5 PBT were incubated in the presence or absence of 50 μg/ml galectin-2 together with derivates of the PE-labelled affinity purified anti-caspase-3 Ab (BD Pharmingen), the carboxyfluorescein-labelled caspase-8 inhibitor FAM-LETD-fmk or caspase-9 inhibitor FAM-LEHD-fmk (both from Biocharta, Hamburg, Germany), all binding irreversibly to activated caspase-3, -8 or -9, respectively. Cells were than analyzed by flow cytometry (FACS-Calibur, BD) and the increase of caspase activity determined after proper gating in correlation to untreated cells.

The subject of another data set is PBT. The data set can be described thus: Extent of apoptosis and necrosis (annexin-V, PI, DAPI staining). The format is cell-based, human. On the procedure:
Apoptosis was determined by monitoring fragmentation of nuclear DNA and access of annexin V to c ell surface phosphatidylserine (PS). To detect fragmentation of nuclear DNA, T cells were cultured in the presence and absence of the respective galectins, with or without blocking antibodies or further activation for 48 h. Thereafter, cells were fixed in 0.2 ml of 37% formaldehyde for 10 min at room temperature. The cells were then treated with 1 ml PBS containing 0.2% Nonidet P-40 (Sigma-Aldrich) for 2 min at room temperature and then rinsed once in PBS. The apoptotic cells were detected by staining of nuclear DNA with 4,6-diamino-2-phenylindole (DAPI) (Calbiochem). DAPI was added at a concentration of 0.2 ng/ml of PBS and cells were incubated at room temperature for 20 min in this solution. Cells were rinsed twice in PBS and the coverslips were maintained cell side down on a microscope slide and analyzed using a Zeiss Axiovert 135M microscope (Carl Zeiss, Oberkochen, Germany). To detect early phases of apoptosis, access to PS was measured. Cells were cultured as described, harvested at the respective time points, stained with FITC-labeled annexin-V and PI and analyzed by flow cytometry using the CellQuest software program (BD Pharmingen). A minimum of 15,000 cells was monitored in each case.

The subject of data set [1] is dextran sodium sulfate induced colitis. The data set can be described thus: Prevention of DSS induced acute colitis, disease activity index (DAI). Type of data set: in vivo, Balb/c mice. Here is the method:
Colitis was induced in 8- to 10-week-old, female, Balb/c mice (Jackson Laboratories, Bar Harbor, Me.) by adding 5% DSS (Sigma Chemical Co., St. Louis, Mo.) (Dextran Sodiumsulfate (DSS) to their drinking water and allowing them to drink ad libitum. Groups of mice were treated either with 1 mg/kg BW (body weight) galectin-2 intraperitoneally or PBS 2 h before DSS administration. Mice were weighed and inspected for diarrhea and rectal bleeding. Seven days after induction of colitis by DSS, mice were killed, their entire colon was resected, and its length was measured and weighed. The disease activity index (DAI; i.e., the combined score of weight loss and bleeding) was determined according to a standard scoring system.
The disease activity index: Loss in bodyweight: 0=no loss; 1=5% to 10%; 2=10% to 15%; 3=15% to 20%; 4 ? 20%.
Hemoccult: 0=no blood; 2=positive; 4=gross blood.
In this experiment the DAI ranges from 0 to 8. The higher the DAI score the more severely the animal had been affected by colitis.
Colitis was induced in 8- to 10-week-old, female, Balb/c mice (Jackson Laboratories, Bar Harbor, Me.) by adding 5% DSS (Sigma Chemical Co., St. Louis, Mo.) (Dextran Sodiumsulfate (DSS) to their drinking water and allowing them to drink ad libitum. Groups of respectively 10 mice were treated either with Galectin-2 subcutaneously (s.c.) or intraperitoneally (i.p.) 2 h before DSS administration. In one trial with 10 mice the doses of Galectin-2 was doubled (administered i.p.) and compared to the treatment of 10 mice with Tacrolimus (FK506) (administered i.p.) in equal concentrations. In parallel a group of 10 mice was treated with 0.9% NaCl instead of Galectin-2 as control. Mice were weighed and inspected for diarrhea and rectal bleeding. 10 days after induction of colitis by DSS, mice were killed, their entire colon was resected, and its length was measured and weighed. The disease activity index (DAI; i.e., the combined score of weight loss and bleeding) was determined according to a standard scoring system.
The disease activity index: Loss in body weight: 0=no loss; 1=5% to 10%; 2=10% to 15%; 3=15% to 20%; 4 ? 20%.

A short description of data set [2]: Toxicity study with supratherapeutic dose in healthy mice. Type of data set: in vivo, Balb/c mice. On the procedure:
In addition, Balb/c mice (not treated with DSS) were treated with 100 mg/kg body weight-Galectin-2, a dose that was up to 50-fold higher than doses of Galectin-2 that caused optimal anti-inflammatory effects in DSS treated mice (optimal therapeutic doses ranged from 1.5-3 mg/kg body weight per day). In these toxicity studies Balb/c mice (n=5), weighing on average 20 g, were treated with 100 mg/kg body weight Galectin-2 once daily i.p. for 5 days. The mice gained about 7±1.7% weight during the 5 day treatment period. […] The mice were sacrificed following the 5 day treatment period and organs were collected for pathological assessment by an experienced pathologist.

Another data set has as its system chronic DSS colitis. The data set can be described thus: Therapy of chronic DSS colitis, disease activity index (DAI). Type of data set: in vivo, Balb/c mice. Conditions: control 5.3 ± 0.7. The source says: Colitis was induced in 30 8- to 10-week-old, female, Balb/c mice (Jackson Laboratories, Bar Harbor, Me.) by adding 5% DSS (Sigma Chemical Co., St. Louis, Mo.) (Dextran Sodiumsulfate (DSS) to their drinking water for the period of seven days and allowing them to drink ad libitum. At the 8th day DSS administration was stopped for another seven days. This scheme of DSS administration for seven days followed by a period of seven days pure water administration was repeated as shown in FIG. 15B. At the 29th day 20 mice were treated with Galectin-2 intraperitoneally (i.p.) parallel to DSS administration. In one trial of this treatment a group of 10 mice were treated with 2 mg/kg Galectin-2 once a day and in another trial the same total dose was distributed in two administrations for a group of ten mice, e.g. 10 mice were treated with respectively 1 mg/kg Galectin-2 twice a day. Parallel a group of 10 mice was treated with 0,9% NaCl instead of Galectin-2 as control. At the 8th day the Galectin-2 treatment was stopped. Parallel to the treatment mice were weighed and inspected for diarrhea and rectal bleeding. After stopping the treatment mice were killed, their entire colon was resected, and its length was measured and weighed. The disease activity index (DAI; i.e., the combined score of weight loss and bleeding) was determined according to a standard scoring system […]

[3] abbreviates: 100 mg/kg once daily i.p. for 5 days.

This note sets out measurements from US20080113907A1, “Uses Of Galectin-2” (Charite-Universitat-Smedizin Berlin, priority 2004, published 2008).

B1: galectin-2: β-galactoside binding lectin, non-covalent dimer with subunits of about 14 kDa; recombinant human or rat (SEQ ID NO:1, 2) (protein)
chain: MAGELEVKNMDMKPGSTLKITGSIADGTDGFVINLGQGTDKLNLHFNPRFSESTIVCNSLDGSNWGQEQREDHLCFSPGSEVKFTVTFESDKFKVKLPDGHELTFPNRLGHSHLSYLSVRGGFNMSSFKLKE
Regarding B1, in the data set with caspase-3, the caspase-3 activity result is on record as “significant increase”. In addition, the “time to induction of apoptosis” value with PBT lay within 6 to 12 h. In the data set with PBT (50 μg/ml, anti-CD3), the “time course of annexin-V staining” value was “gradual increase over 72 h”. In the data set with PBT (25 and 50 μg, data not shown), the “nuclear fragmentation (DAPI staining)” value is “induce nuclear fragmentation”. In addition, the “T cell apoptosis (annexin-V)” value is “induced a dose-dependent apoptosis” in the data set on PBT (PBT activated by anti-CD3 mAbs) and “failed to induce T cells apoptosis” in the data set on PBT (without cell stimulation, 0, 10, 25, 50, 100 μg/ml). Moreover, the “T cell necrosis (PI)” value with PBT (PBT activated by anti-CD3 mAbs) was “albeit to a much lesser extent, necrosis”. Further, the “apoptosis of T cells from patients with RA or CD” value in the data set on PBT (anti-CD3, 48 hours, 0, 10, 25, 50 μg/ml) is reported as “induces apoptosis”. Also, in the data set on PBT (anti-CD3 activated PBT), the “percentage of T cell apoptosis relative to galectin-1” value is “higher than that induced by galectin-1”. Moreover, the “apoptosis in CD4 and CD8 positive T cell populations” value in the data set with PBT (data not shown) is “comparable in CD4 and CD8 positive T cell populations”. Also, the “DAI (disease activity index)” value in data set [1] (1 mg/kg BW i.p. 2 h before DSS, seven days after induction, mean ± SD, DAI 0 to 8, control 6.3 ± 2.30) is 4.5 ± 2.1,; in data set [1] (1 mg/kg i.p., 10 days after induction, control 6.5 ± 0.3) it was 5.0 ± 0.7,; in data set [1] (1 mg/kg s.c., 10 days after induction, control 6.5 ± 0.3), 5.8 ± 0.7,; in data set [1] (2 mg/kg i.p., 10 days after induction, control 6.5 ± 0.3) it was 2.6 ± 0.6,; in the data set on chronic DSS colitis (1 × 2 mg/kg i.p. once a day) it was 4.5 ± 0.6,; with chronic DSS colitis (2 × 1 mg/kg i.p. twice a day) it was 2.8 ± 0.3,. For the same molecule, the mortality entry in data set [2] (setting [3]) is on record as “None of these animals died”. Moreover, the “pathological assessment of heart, kidney, lung, liver” value in data set [2] (setting [3]) is on record as “did not reveal any microscopic or macroscopic damage”. Further, the weight gain entry in data set [2] (setting [3]) is “about 7±1.7%”. Besides, in data set [2] (100 mg/kg versus 2×1 mg/kg), the “highest dose evaluated relative to optimal dose” value was “about 50 fold”. Also, the dose limiting toxicities result in data set [2] (broad dose range up to 100 mg/kg) is reported as “no dose limiting toxicities were observed”.
